This passage reports Kd and koff results from publication PMC6493668 (2019).

Sequences and labels used below:
B1: F6 Fab (fragment of antigen binding of the neutralizing monoclonal antibody F6) (Fab, V domains shown)
VH: EVKLVESGGGLVKPGGSLKLSCAASMYNFQHYGMSWVRQTPEKRLEWVATIQTNATYTYYPDSVKGRFTISRDNARNILYLQMSSLRSGDTAMYYCARRDNIECHYYFDYWGQGTTLTVSS
VL: DIVLTQSPAIMSASPGERVTMTCSAHQYVSYMHWYQQKSGTSPKRWIYDTSRLADAIPQRFSGRGSGTSYSLTISSMEAEDAATYYCQQWQSNPYTFGGGTKLEIK
B2: F4 Fab (fragment of antigen binding of the neutralizing monoclonal antibody F4) (Fab, V domains shown)
VH: EVKLVESGGGLVKPGGSLKLSCAASLFTHNNYGMSWVRQTPEKRLEWVATINSTASYTYYPDSVKGRFTISRDNAKNTLYLQMSSLRSGDTAIYYCARKNDTFSDYYFDYWGQGTTLTVSS
VL: DIVLTQSPAIMSASPGERVTMTCSAHVSTDYMHWYQQKSGTSPKRWIYDTSKLASTVPDRFSGSGSGTSYSLTISSMEAEDAATYYCQQWNNNAYTYGGGTKLEIK
B3: R10 Fab (fragment of antigen binding of the neutralizing monoclonal antibody R10) (Fab, V domains shown)
VH: EVKLVESGGGSVKPGGSLKLSCAASGFSFSTYGMSWVRQTPEKRLEWVATISGGGGYTYYPDSVKGRFTISRDNARNILYLQMSSLRSGDTAMYYCARRVTTVAEYYFDYWGQGTTLTVSS
VL: DIVLTQSPAIMSASPGEKVTMTCSASSSVSYIHWYQQKSGTSPKRWIYDTSRLAFGVPGRFSGSGSGTSYSLTISSMEAEDAATYYCQQWSSNYTFGGGTNLEIK
B4: F9 Fab (fragment of antigen binding of the neutralizing monoclonal antibody F9) (Fab, V domains shown)
VH: EVKLVESGGGLVKPGGSLKLSCAASAFTITTYGMSWVRQTPEKRLEWVATITAGGSYTYYPDSVKGRFTISRDNAKNTLYLQMSSLRSGDTAMYYCARKVTSVAEYYFDYWGQGTTLTVSS
VL: DIVLTQSPAIMSASPGEKVTMTCSATSGLSYIHWYQQKSGTSPKRWIYDTSKLAFGAPARFSGSGSGTSYSLTISSMEAEDAATYYCQQWDVNPYTFGGGTKLEIK
B5: F7 Fab (fragment of antigen binding of the neutralizing monoclonal antibody F7) (Fab, V domains shown)
VH: EVKLVESGGGLVKPGGSLKLSCAASIHTFNCYGMSWVRQTPEKGLEWVATIDAASSYTYYPDSVKGRFTISRDNAKNTLYLQMSSLRSGDTAMYYCARRDNTTAQYYFDYWGQGTTLTVSS
VL: B4 VL with T26A, G28S, L29V, K52R, A57V, A59T, D91S, V92T

Where a chain is given by its changes, count along the chain named.

The first assay deals with T1, hepatitis A virus (HAV) full particle, genotype TZ84 (HAV IA genotype) (hepatitis A virus, genotype TZ84 (HAV …)).
T1 chain 1: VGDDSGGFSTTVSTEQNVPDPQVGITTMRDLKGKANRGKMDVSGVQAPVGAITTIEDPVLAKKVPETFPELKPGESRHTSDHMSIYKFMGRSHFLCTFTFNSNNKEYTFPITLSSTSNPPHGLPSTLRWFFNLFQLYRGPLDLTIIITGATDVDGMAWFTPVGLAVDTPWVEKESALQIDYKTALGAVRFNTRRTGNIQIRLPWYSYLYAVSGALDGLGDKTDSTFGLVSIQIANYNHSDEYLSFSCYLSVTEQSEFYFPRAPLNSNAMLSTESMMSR
T1 chain 2: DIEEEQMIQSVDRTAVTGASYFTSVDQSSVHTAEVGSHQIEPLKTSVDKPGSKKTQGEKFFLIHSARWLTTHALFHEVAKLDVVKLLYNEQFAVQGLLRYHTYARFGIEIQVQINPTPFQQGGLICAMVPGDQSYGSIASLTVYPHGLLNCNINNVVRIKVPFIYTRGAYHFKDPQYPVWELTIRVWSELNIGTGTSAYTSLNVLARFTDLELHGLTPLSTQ
T1 chain 3: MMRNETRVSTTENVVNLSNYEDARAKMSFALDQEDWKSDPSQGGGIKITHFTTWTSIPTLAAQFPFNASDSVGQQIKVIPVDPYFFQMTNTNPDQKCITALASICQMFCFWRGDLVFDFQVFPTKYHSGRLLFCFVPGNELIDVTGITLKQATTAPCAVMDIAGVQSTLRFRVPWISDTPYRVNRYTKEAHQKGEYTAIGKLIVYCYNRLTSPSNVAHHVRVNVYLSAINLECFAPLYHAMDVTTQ
Nature of the assay: SPR. (In SPR one partner is held on a chip, and binding of the other changes the refractive index at the surface.)
For orientation: Kd means the equilibrium constant for the complex coming apart. Low values mean tighter binding, high ones weaker binding. Take B1: binding was put at a Kd of 2.19 nM. This counts as single-digit nanomolar.
The same measure, in the same setting: the result for B2 reads 5.14 nM; that for B3, 8.13 nM; that for B4, 7.18 nM.
B5 came in with a Kd of 7.1 nM.

In another assay the target is T1, hepatitis A virus (HAV) full particle, …. Nature of the assay: SPR. This is another data set of the same source.
The koff is the first-order rate constant of dissociation. Lower therefore signals a long-lived complex. In turn, B1 showed a koff of 0.000134 s⁻¹.
Same read-out and setting: the result for B2 reads 0.000252 s⁻¹.
B3 gave a koff of 0.000528 s⁻¹.
On the same count and under the same terms, the result for B4 reads 0.000537 s⁻¹; that for B5, 0.000743 s⁻¹.
